Key:
HeLa Kyoto [1] = test: solubility in G1/S (NP-40 vs SDS abundance) (log2 ratio); higher = more soluble; conditions: cell cycle stage: G1/S
HeLa Kyoto [2] = test: melting temperature (median over replicates), in situ; higher = more thermally stable
HeLa Kyoto [3] = test: solubility change mitosis vs G1/S (difference of NP-40 vs SDS log2 ratios) (log2 ratio difference); higher = more soluble in mitosis
HeLa Kyoto [4] = test: thermal stability score vs G1/S (z-score of summed log2 fold changes over temperatures); higher = more thermally stable than in G1/S
[5] = cell cycle stage: early G1 (4.5 h after nocodazole release)
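Throughout, for melting temperature (median over replicates), in situ: HeLa Kyoto cells synchronized by double thymidine or nocodazole block, proteins quantified by TMT10plex mass spectrometry, three independent biological replicates.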
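Throughout, for solubility change mitosis vs G1/S (difference of NP-40 vs SDS log2 ratios): synchronized HeLa Kyoto cells (double thymidine block for G1/S, nocodazole release for mitosis), protein amounts in NP-40 versus SDS lysates quantified by mass spectrometry, three biological replicates.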
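Throughout, for solubility in G1/S (NP-40 vs SDS abundance): HeLa Kyoto cells arrested at G1/S by double thymidine block, proteins quantified by TMT10plex mass spectrometry in mild NP-40 versus SDS extracts, three biological replicates.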
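Throughout, for thermal stability score vs G1/S (z-score of summed log2 fold changes over temperatures): synchronized HeLa Kyoto cells, proteins quantified by TMT10plex mass spectrometry, three biological replicates, mitosis taken 0.5 h after nocodazole release, G1/S directly after double thymidine block.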

| Sequence | solubility in G1/S (log2) (HeLa Kyoto [1]) | melting temperature (HeLa Kyoto [2]; cell cycle stage: G1/S) [°C] | melting temperature (HeLa Kyoto [2]; cell cycle stage: mitosis) [°C] | solubility change mitosis (log2) (HeLa Kyoto [3]) | thermal stability score (HeLa Kyoto [4]; [5]) | thermal stability score (HeLa Kyoto [4]; cell cycle stage: mitosis) |
| --- | --- | --- | --- | --- | --- | --- |
| MNKLRQSFRRKKDVYVPEASRPHQWQTDEEGVRTGKCSFPVKYLGHVEVDESRGMHICEDAVKRLKAERKFFKGFFGKTGKKAVKAVLWVSADGLRVVDEKTKDLIVDQTIEKVSFCAPDRNFDRAFSYICRDGTTRRWICHCFMAVKDTGERLSHAVGCAFAACLERKQKREKECGVTATFDASRTTFTREGSFRVTTATEQAEREEIMKQMQDAKKAETDKIVVGSSVAPGNTAPSPSSPTSPTSDATTSLEMNNPHAIPRRHAPIEQLARQGSFRGFPALSQKMSPFKRQLSLRINELPSTMQRKTDFPIKNAVPEVEGEAESISSLCSQITNAFSTPEDPFSSAPMTKPVTVVAPQSPTFQANGTDSAFHVLAKPAHTALAPVAMPVRETNPWAHAPDAANKEIAATCSGTEWGQSSGAASPGLFQAGHRRTPSEADRWLEEVSKSVRAQQPQASAAPLQPVLQPPPPTAISQPASPFQGNAFLTSQPVPVGVVPALQPAFVPAQSYPVANGMPYPAPNVPVVGITPSQMVANVFGTAGHPQAAHPHQSPSLVRQQTFPHYEASSATTSPFFKPPAQHLNGSAAFNGVDDGRLASADRHTEVPTGTCPVDPFEAQWAALENKSKQRTNPSPTNPFSSDLQKTFEIEL [NUMB] | -0.0586 | 51.9 | 51.4 | -0.132 | 0.0697 | 0.793 |
| MNLFNLDRFRFEKRNKIEEAPEATPQPSQPGPSSPISLSAEEENAEGEVSRANTPDSDITEKTEDSSVPETPDNERKASISYFKNQRGIQYIDLSSDSEDVVSPNCSNTVQEKTFNKDTVIIVSEPSEDEESQGLPTMARRNDDISELEDLSELEDLKDAKLQTLKELFPQRSDNDLLKLIESTSTMDGAIAAALLMFGDAGGGPRKRKLSSSSEPYEEDEFNDDQSIKKTRLDHGEESNESAESSSNWEKQESIVLKLQKEFPNFDKQELREVLKEHEWMYTEALESLKVFAEDQDMQYVSQSEVPNGKEVSSRSQNYPKNATKTKLKQKFSMKAQNGFNKKRKKNVFNPKRVVEDSEYDSGSDVGSSLDEDYSSGEEVMEDGYKGKILHFLQDASIGELTLIPQCSQKKAQKITELRPFNSWEALFTKMSKTNGLSEDLIWHCKTLIQERDVVIRLMNKCEDISNKLTKQVTMLTGNGGGWNIEQPSILNQSLSLKPYQKVGLNWLALVHKHGLNGILADEMGLGKTIQAIAFLAYLYQEGNNGPHLIVVPASTIDNWLREVNLWCPTLKVLCYYGSQEERKQIRFNIHSRYEDYNVIVTTYNCAISSSDDRSLFRRLKLNYAIFDEGHMLKNMGSIRYQHLMTINANNRLLLTGTPVQNNLLELMSLLNFVMPHMFSSSTSEIRRMFSSKTKSADEQSIYEKERIAHAKQIIKPFILRRVKEEVLKQLPPKKDRIELCAMSEKQEQLYLGLFNRLKKSINNLEKNTEMCNVMMQLRKMANHPLLHRQYYTAEKLKEMSQLMLKEPTHCEANPDLIFEDMEVMTDFELHVLCKQYRHINNFQLDMDLILDSGKFRVLGCILSELKQKGDRVVLFSQFTMMLDILEVLLKHHQHRYLRLDGKTQISERIHLIDEFNTDMDIFVFLLSTKAGGLGINLTSANVVILHDIDCNPYNDKQAEDRCHRVGQTKEVLVIKLISQGTIEESMLKINQQKLKLEQDMTTVDEGDEGSMPADIATLLKTSMGL [SMARCAD1] | -0.1 | 48.4 | 49.7 | -0.124 | 2.18 | 3.89 |
| MNLLPKSSREFGSVDYWEKFFQQRGKKAFEWYGTYLELCGVLHKYIKPREKVLVIGCGNSELSEQLYDVGYRDIVNIDISEVVIKQMKECNATRRPQMSFLKMDMTQMEFPDASFQVVLDKGTLDAVLTDEEEKTLQQVDRMLAEVGRVLQVGGRYLCISLAQAHILKKAVGHFSREGWMVRVHQVANSQDQVLEAEPQFSLPVFAFIMTKFRPVPGSALQIFELCAQEQRKPVRLESAERLAEAVQERQQYAWLCSQLRRKARLGSVSLDLCDGDTGEPRYTLHVVDSPTVKPSRDNHFAIFIIPQGRETEWLFGMDEGRKQLAASAGFRRLITVALHRGQQYESMDHIQAELSARVMELAPAGMPTQQQVPFLSVGGDIGVRTVQHQDCSPLSGDYVIEDVQGDDKRYFRRLIFLSNRNVVQSEARLLKDVSHKAQKKRKKDRKKQRPADAEDLPAAPGQSIDKSYLCCEHHKAMIAGLALLRNPELLLEIPLALLVVGLGGGSLPLFVHDHFPKSCIDAVEIDPSMLEVATQWFGFSQSDRMKVHIADGLDYIASLAGGGEARPCYDVIMFDVDSKDPTLGMSCPPPAFVEQSFLQKVKSILTPEGVFILNLVCRDLGLKDSVLAGLKAVFPLLYVRRIEGEVNEILFCQLHPEQKLATPELLETAQALERTLRKPGRGWDDTYVLSDMLKTVKIV [METTL13] | -0.167 | 49.3 | 48.9 | -0.0232 | 0.527 | 1.18 |
| MNMTQARVLVAAVVGLVAVLLYASIHKIEEGHLAVYYRGGALLTSPSGPGYHIMLPFITTFRSVQTTLQTDEVKNVPCGTSGGVMIYIDRIEVVNMLAPYAVFDIVRNYTADYDKTLIFNKIHHELNQFCSAHTLQEVYIELFDQIDENLKQALQKDLNLMAPGLTIQAVRVTKPKIPEAIRRNFELMEAEKTKLLIAAQKQKVVEKEAETERKKAVIEAEKIAQVAKIRFQQKVMEKETEKRISEIEDAAFLAREKAKADAEYYAAHKYATSNKHKLTPEYLELKKYQAIASNSKIYFGSNIPNMFVDSSCALKYSDIRTGRESSLPSKEALEPSGENVIQNKESTG [ERLIN1] | 0.24 | 52.7 | 53.1 | -0.0762 | 1.82 | 4.38 |
| MNNHVSSKPSTMKLKHTINPILLYFIHFLISLYTILTYIPFYFFSESRQEKSNRIKAKPVNSKPDSAYRSVNSLDGLASVLYPGCDTLDKVFTYAKNKFKNKRLLGTREVLNEEDEVQPNGKIFKKVILGQYNWLSYEDVFVRAFNFGNGLQMLGQKPKTNIAIFCETRAEWMIAAQACFMYNFQLVTLYATLGGPAIVHALNETEVTNIITSKELLQTKLKDIVSLVPRLRHIITVDGKPPTWSEFPKGIIVHTMAAVEALGAKASMENQPHSKPLPSDIAVIMYTSGSTGLPKGVMISHSNIIAGITGMAERIPELGEEDVYIGYLPLAHVLELSAELVCLSHGCRIGYSSPQTLADQSSKIKKGSKGDTSMLKPTLMAAVPEIMDRIYKNVMNKVSEMSSFQRNLFILAYNYKMEQISKGRNTPLCDSFVFRKVRSLLGGNIRLLLCGGAPLSATTQRFMNICFCCPVGQGYGLTESAGAGTISEVWDYNTGRVGAPLVCCEIKLKNWEEGGYFNTDKPHPRGEILIGGQSVTMGYYKNEAKTKADFFEDENGQRWLCTGDIGEFEPDGCLKIIDRKKDLVKLQAGEYVSLGKVEAALKNLPLVDNICAYANSYHSYVIGFVVPNQKELTELARKKGLKGTWEELCNSCEMENEVLKVLSEAAISASLEKFEIPVKIRLSPEPWTPETGLVTDAFKLKRKELKTHYQADIERMYGRK [ACSL3] | -0.101 | 50.7 | 51.2 | -0.129 | 1.86 | 3.88 |
| MNNLSFSELCCLFCCPPCPGKIASKLAFLPPDPTYTLMCDESGSRWTLHLSERADWQYSSREKDAIECFMTRTSKGNRIACMFVRCSPNAKYTLLFSHGNAVDLGQMSSFYIGLGSRINCNIFSYDYSGYGASSGKPTEKNLYADIEAAWLALRTRYGIRPENVIIYGQSIGTVPSVDLAARYESAAVILHSPLTSGMRVAFPDTKKTYCFDAFPNIDKISKITSPVLIIHGTEDEVIDFSHGLALFERCQRPVEPLWVEGAGHNDVELYGQYLERLKQFVSQELVNL [ABHD17B] | 0.0257 | 54.9 | 54.3 | -0.163 | -2.83 | -2.95 |
| MNPDLRRERDSASFNPELLTHILDGSPEKTRRRREIENMILNDPDFQHEDLNFLTRSQRYEVAVRKSAIMVKKMREFGIADPDEIMWFKKLHLVNFVEPVGLNYSMFIPTLLNQGTTAQKEKWLLSSKGLQIIGTYAQTEMGHGTHLRGLETTATYDPETQEFILNSPTVTSIKWWPGGLGKTSNHAIVLAQLITKGKCYGLHAFIVPIREIGTHKPLPGITVGDIGPKFGYDEIDNGYLKMDNHRIPRENMLMKYAQVKPDGTYVKPLSNKLTYGTMVFVRSFLVGEAARALSKACTIAIRYSAVRHQSEIKPGEPEPQILDFQTQQYKLFPLLATAYAFQFVGAYMKETYHRINEGIGQGDLSELPELHALTAGLKAFTSWTANTGIEACRMACGGHGYSHCSGLPNIYVNFTPSCTFEGENTVMMLQTARFLMKSYDQVHSGKLVCGMVSYLNDLPSQRIQPQQVAVWPTMVDINSPESLTEAYKLRAARLVEIAAKNLQKEVIHRKSKEVAWNLTSVDLVRASEAHCHYVVVKLFSEKLLKIQDKAIQAVLRSLCLLYSLYGISQNAGDFLQGSIMTEPQITQVNQRVKELLTLIRSDAVALVDAFDFQDVTLGSVLGRYDGNVYENLFEWAKNSPLNKAEVHESYKHLKSLQSKL [ACOX1] | 0.331 | 55.9 | 58.3 | -0.212 | -1.6 | -3.2 |
| MNPESSIFIEDYLKYFQDQVSRENLLQLLTDDEAWNGFVAAAELPRDEADELRKALNKLASHMVMKDKNRHDKDQQHRQWFLKEFPRLKRELEDHIRKLRALAEEVEQVHRGTTIANVVSNSVGTTSGILTLLGLGLAPFTEGISFVLLDTGMGLGAAAAVAGITCSVVELVNKLRARAQARNLDQSGTNVAKVMKEFVGGNTPNVLTLVDNWYQVTQGIGRNIRAIRRARANPQLGAYAPPPHVIGRISAEGGEQVERVVEGPAQAMSRGTMIVGAATGGILLLLDVVSLAYESKHLLEGAKSESAEELKKRAQELEGKLNFLTKIHEMLQPGQDQ [APOL2] | 0.309 | 50 | 50.8 | 0.0238 | 4.12 | 3.26 |
| MNRGFSRKSHTFLPKIFFRKMSSSGAKDKPELQFPFLQDEDTVATLLECKTLFILRGLPGSGKSTLARVIVDKYRDGTKMVSADAYKITPGARGAFSEEYKRLDEDLAAYCRRRDIRILVLDDTNHERERLEQLFEMADQYQYQVVLVEPKTAWRLDCAQLKEKNQWQLSADDLKKLKPGLEKDFLPLYFGWFLTKKSSETLRKAGQVFLEELGNHKAFKKELRQFVPGDEPREKMDLVTYFGKRPPGVLHCTTKFCDYGKAPGAEEYAQQDVLKKSYSKAFTLTISALFVTPKTTGARVELSEQQLQLWPSDVDKLSPTDNLPRGSRAHITLGCAADVEAVQTGLDLLEILRQEKGGSRGEEVGELSRGKLYSLGNGRWMLTLAKNMEVRAIFTGYYGKGKPVPTQGSRKGGALQSCTII [CNP] | 0.107 | 50.6 | 50.3 | -0.00285 | 1.08 | 0.579 |
